Article PMC12677461

Target: Gαo, alpha subunit of the heterotrimeric G protein Go (native, mouse brain) (mouse (endogenous in BALB/c mouse brain)) (UniProt P18872)
Assay: co-IP; mouse brain lysate (2 mg/ml in IP buffer: 50 mM HEPES pH 7.4, 100 mM NaCl, 1 mM EDTA, 3 mM EGTA, 10 mM MgCl2, 1% Triton X-100) with 100 µM GDP, 4 °C, 2 h; Gαo precipitated with anti-Gαo sc-13532 cross-linked to protein A/G agarose; read by protein stain and western blot

Sequence of UniProt P18872 (P18872 whole entry, one chain of several): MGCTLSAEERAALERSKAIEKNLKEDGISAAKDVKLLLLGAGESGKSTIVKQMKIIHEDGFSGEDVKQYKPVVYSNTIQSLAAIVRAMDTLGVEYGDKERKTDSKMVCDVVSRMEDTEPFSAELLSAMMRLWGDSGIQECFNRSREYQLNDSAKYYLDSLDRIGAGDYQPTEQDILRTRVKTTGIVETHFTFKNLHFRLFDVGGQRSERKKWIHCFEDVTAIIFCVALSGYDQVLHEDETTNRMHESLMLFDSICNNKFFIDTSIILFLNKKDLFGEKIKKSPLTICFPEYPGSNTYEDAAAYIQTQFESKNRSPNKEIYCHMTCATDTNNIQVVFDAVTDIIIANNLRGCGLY

stoichiometry N: 1
Substance: Gβγ (G protein β and γ subunits, native, mouse brain) (from UniProt P62874 1-340; P63213 1-71) (complex)
